Consider 103 variants from the Human Domainome abundance scans (Beltran et al. 2025).

± gives the uncertainty stated by the source.

The labels stand for the following.
B1: Syntaxin-binding protein 4, residues 493 to 538; numbered along this chain, Q6ZWJ1 (parent)
chain: LDMDCLPYGWEEAYTADGIKYFINHVTQTTSWIHPVMSVLNLSRSE
B2: KAT8 regulatory NSL complex subunit 2, residues 28 to 91; numbered along this chain, Q9H9L4 (parent)
chain: CAFTHRPCSHPRLEGQEFCIKHILEDKNAPFKQCSYISTKNGKRCPNAAPKPEKKDGVSFCAEH

The variants in the first data set derive from B1. Put plainly: abundance fitness (aPCA) (normalised: wild type 0, dead -1); higher = more abundant; growth selection in yeast, the domain comes from the species named. The following applies: Homo sapiens.
On to N41H, for which the abundance fitness was -0.681 ± 0.2.

Regarding N41Q, the abundance fitness is -0.514 ± 0.14. For N41S, the abundance fitness was -0.227 ± 0.09. For the variant N41M, the abundance fitness was -0.403 ± 0.11. In the case of N41C, the abundance fitness is -0.236 ± 0.14. On the same count and under the same terms, the value for N41P was -0.38 ± 0.11; that for N41L was -0.684 ± 0.1; that for N41D was 0.174 ± 0.12. Regarding L42R, the abundance fitness turned out to be 0.108 ± 0.085. L42S: the abundance fitness was found to be 0.162 ± 0.095.

For the variant L42G, the abundance fitness amounted to 0.174 ± 0.077. For the variant L42P, the abundance fitness is -0.304 ± 0.14. In the case of L42H, the abundance fitness was 0.52 ± 0.14. The same measure, in the same setting: the value for L42N was 0.578 ± 0.12. In the case of L42D, the abundance fitness was 0.022 ± 0.14. With L42V, the abundance fitness was found to be 0.052 ± 0.081. Take L42A: the abundance fitness is -0.05 ± 0.088. L42Y: the abundance fitness was -0.876 ± 0.21. For L42E, the abundance fitness was 0.198 ± 0.1. The same measure, in the same setting: the value for L42K was 0.16 ± 0.12. Consider L42M, for which the abundance fitness was -0.046 ± 0.11. Turning to L42W, the abundance fitness is -0.292 ± 0.1. As to L42C, the abundance fitness came to 0.025 ± 0.12. On to L42T, for which the abundance fitness was 0.048 ± 0.12. For the variant S38M, the abundance fitness was -0.663 ± 0.13.

On to S38L, for which the abundance fitness is -0.78 ± 0.11. On the same count and under the same terms, the value for S38P was -0.141 ± 0.097. Take S38I: the abundance fitness was -0.845 ± 0.23. On to S38K, for which the abundance fitness is -0.479 ± 0.11.

On to S38T, for which the abundance fitness was -0.75 ± 0.13.

As for S38H, the abundance fitness is -0.678 ± 0.21. As for S38R, the abundance fitness is -0.418 ± 0.085. Consider S38Q, for which the abundance fitness was -0.697 ± 0.15. The same measure, in the same setting: the value for S38A was -0.649 ± 0.1.

As to S38W, the abundance fitness was -0.264 ± 0.1. On to S38V, for which the abundance fitness is -0.502 ± 0.094.

Take S38C: the abundance fitness was -0.567 ± 0.14.

In the case of S38Y, the abundance fitness was -0.376 ± 0.14. On the same count and under the same terms, the value for S38F was -0.531 ± 0.13. On the same count and under the same terms, the value for S38E was -0.693 ± 0.13; that for S38D was -0.004 ± 0.13.

Take S38N: the abundance fitness is -0.046 ± 0.13. In the case of L40G, the abundance fitness is 0.164 ± 0.085. Regarding L40H, the abundance fitness is 0.07 ± 0.19. In the case of L40T, the abundance fitness was -0.319 ± 0.11. The same measure, in the same setting: the value for L40N was 0.04 ± 0.15; that for L40S was 0.139 ± 0.085; that for L40E was 0.111 ± 0.11. In the case of L40P, the abundance fitness is 0.067 ± 0.11. For L40A, the abundance fitness is -0.127 ± 0.11.

In the case of L40V, the abundance fitness is -0.273 ± 0.096.

L40I: the abundance fitness was -0.816 ± 0.16. Still for that read-out and setting: the value for L40K was 0.041 ± 0.11; that for L40F was -0.304 ± 0.14; that for L40W was -0.136 ± 0.1.

As to L40Y, the abundance fitness is -0.584 ± 0.16. Turning to L40D, the abundance fitness is -0.471 ± 0.17. With L40Q, the abundance fitness came out at 0.046 ± 0.11. On the same count and under the same terms, the value for L40C was -0.154 ± 0.11; that for L40R was -0.003 ± 0.082.

A further data set covers variants of B2. The data set is described as above. As to conditions: Homo sapiens.
Turning to WAFTHRPCSHPRLEGQEFCIKHILEDKNAPFKQCSYISTKNGKRCPNAAPKPEKKDGVSFCAEH, the abundance fitness was -0.837 ± 0.12. With GAFTHRPCSHPRLEGQEFCIKHILEDKNAPFKQCSYISTKNGKRCPNAAPKPEKKDGVSFCAEH, the abundance fitness is -0.604 ± 0.15.

On to MAFTHRPCSHPRLEGQEFCIKHILEDKNAPFKQCSYISTKNGKRCPNAAPKPEKKDGVSFCAEH, for which the abundance fitness was -0.576 ± 0.16. Consider AAFTHRPCSHPRLEGQEFCIKHILEDKNAPFKQCSYISTKNGKRCPNAAPKPEKKDGVSFCAEH, for which the abundance fitness was -0.343 ± 0.27.

Turning to YAFTHRPCSHPRLEGQEFCIKHILEDKNAPFKQCSYISTKNGKRCPNAAPKPEKKDGVSFCAEH, the abundance fitness is -0.802 ± 0.062.

Turning to NAFTHRPCSHPRLEGQEFCIKHILEDKNAPFKQCSYISTKNGKRCPNAAPKPEKKDGVSFCAEH, the abundance fitness is -0.615 ± 0.19.

As for KAFTHRPCSHPRLEGQEFCIKHILEDKNAPFKQCSYISTKNGKRCPNAAPKPEKKDGVSFCAEH, the abundance fitness is -0.155 ± 0.15. As for EAFTHRPCSHPRLEGQEFCIKHILEDKNAPFKQCSYISTKNGKRCPNAAPKPEKKDGVSFCAEH, the abundance fitness was -0.322 ± 0.09. Take SAFTHRPCSHPRLEGQEFCIKHILEDKNAPFKQCSYISTKNGKRCPNAAPKPEKKDGVSFCAEH: the abundance fitness was -0.358 ± 0.072. For DAFTHRPCSHPRLEGQEFCIKHILEDKNAPFKQCSYISTKNGKRCPNAAPKPEKKDGVSFCAEH, the abundance fitness was -0.896 ± 0.17. Still for that read-out and setting: the value for VAFTHRPCSHPRLEGQEFCIKHILEDKNAPFKQCSYISTKNGKRCPNAAPKPEKKDGVSFCAEH was -0.865 ± 0.094.

As for RAFTHRPCSHPRLEGQEFCIKHILEDKNAPFKQCSYISTKNGKRCPNAAPKPEKKDGVSFCAEH, the abundance fitness was -0.545 ± 0.14. The same measure, in the same setting: the value for IAFTHRPCSHPRLEGQEFCIKHILEDKNAPFKQCSYISTKNGKRCPNAAPKPEKKDGVSFCAEH was -0.287 ± 0.34; that for TAFTHRPCSHPRLEGQEFCIKHILEDKNAPFKQCSYISTKNGKRCPNAAPKPEKKDGVSFCAEH was -0.89 ± 0.29; that for LAFTHRPCSHPRLEGQEFCIKHILEDKNAPFKQCSYISTKNGKRCPNAAPKPEKKDGVSFCAEH was -0.886 ± 0.14. In the case of CAETHRPCSHPRLEGQEFCIKHILEDKNAPFKQCSYISTKNGKRCPNAAPKPEKKDGVSFCAEH, the abundance fitness is -0.285 ± 0.085. As for CAHTHRPCSHPRLEGQEFCIKHILEDKNAPFKQCSYISTKNGKRCPNAAPKPEKKDGVSFCAEH, the abundance fitness is -0.026 ± 0.086. For the variant CAGTHRPCSHPRLEGQEFCIKHILEDKNAPFKQCSYISTKNGKRCPNAAPKPEKKDGVSFCAEH, the abundance fitness is -0.154 ± 0.064. As to CAMTHRPCSHPRLEGQEFCIKHILEDKNAPFKQCSYISTKNGKRCPNAAPKPEKKDGVSFCAEH, the abundance fitness was -0.172 ± 0.085. On the same count and under the same terms, the value for CAKTHRPCSHPRLEGQEFCIKHILEDKNAPFKQCSYISTKNGKRCPNAAPKPEKKDGVSFCAEH was -0.287 ± 0.15. CACTHRPCSHPRLEGQEFCIKHILEDKNAPFKQCSYISTKNGKRCPNAAPKPEKKDGVSFCAEH: the abundance fitness was -0.14 ± 0.077.

CAITHRPCSHPRLEGQEFCIKHILEDKNAPFKQCSYISTKNGKRCPNAAPKPEKKDGVSFCAEH: the abundance fitness is 0.033 ± 0.13. In the case of CAATHRPCSHPRLEGQEFCIKHILEDKNAPFKQCSYISTKNGKRCPNAAPKPEKKDGVSFCAEH, the abundance fitness is -0.318 ± 0.087.

For the variant CALTHRPCSHPRLEGQEFCIKHILEDKNAPFKQCSYISTKNGKRCPNAAPKPEKKDGVSFCAEH, the abundance fitness was -0.332 ± 0.049. As to CADTHRPCSHPRLEGQEFCIKHILEDKNAPFKQCSYISTKNGKRCPNAAPKPEKKDGVSFCAEH, the abundance fitness is -0.255 ± 0.075. The same measure, in the same setting: the value for CNFTHRPCSHPRLEGQEFCIKHILEDKNAPFKQCSYISTKNGKRCPNAAPKPEKKDGVSFCAEH was 0.023 ± 0.17; that for CCFTHRPCSHPRLEGQEFCIKHILEDKNAPFKQCSYISTKNGKRCPNAAPKPEKKDGVSFCAEH was -0.08 ± 0.093. Same read-out and setting: the value for CKFTHRPCSHPRLEGQEFCIKHILEDKNAPFKQCSYISTKNGKRCPNAAPKPEKKDGVSFCAEH was -0.153 ± 0.14; that for CMFTHRPCSHPRLEGQEFCIKHILEDKNAPFKQCSYISTKNGKRCPNAAPKPEKKDGVSFCAEH was -0.014 ± 0.082; that for CFFTHRPCSHPRLEGQEFCIKHILEDKNAPFKQCSYISTKNGKRCPNAAPKPEKKDGVSFCAEH was -0.513 ± 0.14. In the case of CLFTHRPCSHPRLEGQEFCIKHILEDKNAPFKQCSYISTKNGKRCPNAAPKPEKKDGVSFCAEH, the abundance fitness was -0.152 ± 0.069. For CIFTHRPCSHPRLEGQEFCIKHILEDKNAPFKQCSYISTKNGKRCPNAAPKPEKKDGVSFCAEH, the abundance fitness is -0.198 ± 0.13.

As for CQFTHRPCSHPRLEGQEFCIKHILEDKNAPFKQCSYISTKNGKRCPNAAPKPEKKDGVSFCAEH, the abundance fitness is -0.186 ± 0.16. CTFTHRPCSHPRLEGQEFCIKHILEDKNAPFKQCSYISTKNGKRCPNAAPKPEKKDGVSFCAEH: the abundance fitness is -0.103 ± 0.056.

As for CGFTHRPCSHPRLEGQEFCIKHILEDKNAPFKQCSYISTKNGKRCPNAAPKPEKKDGVSFCAEH, the abundance fitness is -0.101 ± 0.055. Still for that read-out and setting: the value for CDFTHRPCSHPRLEGQEFCIKHILEDKNAPFKQCSYISTKNGKRCPNAAPKPEKKDGVSFCAEH was -0.388 ± 0.13. Turning to CHFTHRPCSHPRLEGQEFCIKHILEDKNAPFKQCSYISTKNGKRCPNAAPKPEKKDGVSFCAEH, the abundance fitness is -0.231 ± 0.1. Take CPFTHRPCSHPRLEGQEFCIKHILEDKNAPFKQCSYISTKNGKRCPNAAPKPEKKDGVSFCAEH: the abundance fitness was -0.421 ± 0.084. Same read-out and setting: the value for CSFTHRPCSHPRLEGQEFCIKHILEDKNAPFKQCSYISTKNGKRCPNAAPKPEKKDGVSFCAEH was -0.238 ± 0.088.

As to CVFTHRPCSHPRLEGQEFCIKHILEDKNAPFKQCSYISTKNGKRCPNAAPKPEKKDGVSFCAEH, the abundance fitness was -0.235 ± 0.051. For the variant CWFTHRPCSHPRLEGQEFCIKHILEDKNAPFKQCSYISTKNGKRCPNAAPKPEKKDGVSFCAEH, the abundance fitness is -0.541 ± 0.059. In the case of CRFTHRPCSHPRLEGQEFCIKHILEDKNAPFKQCSYISTKNGKRCPNAAPKPEKKDGVSFCAEH, the abundance fitness is -0.138 ± 0.076.

Turning to CEFTHRPCSHPRLEGQEFCIKHILEDKNAPFKQCSYISTKNGKRCPNAAPKPEKKDGVSFCAEH, the abundance fitness is -0.522 ± 0.1.
